± gives the uncertainty stated by the source.
Experiment: amyloid nucleation score (Sup35N fusion, yeast selection) (log enrichment); library NNK2; higher = more nucleation; inactive = no reads after selection
How it was run: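 Peptides of 20 random codons fused to Sup35N were expressed in psi-negative yeast, induced 24 hours with 100 μM copper sulfate, then grown 7 days at 30°C on medium lacking adenine and uracil. Input and output plasmid inserts were Illumina-sequenced. Nucleation score is the DiMSum log enrichment of output over input reads, centred on the mode score of non-aggregating sequences, excluding sequences with under 100 input reads. Random libraries had three technical output replicates.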

Substance | amyloid nucleation score
NSTLGGVFACYYFALSHAAE | 6.41 ± 0.059
VIVLIVLPEYAGVYSHWCWD | 0.772 ± 0.81
VLSCRSLSAQFSMPAFMEQS | 0.972 ± 0.18
YCHLVV | 2.04 ± 0.087
AWRGFTSIGAYYAQFGLGVA | 0.431 ± 0.36
VYSANSWH | -0.364 ± 0.3
STEERRWNN | -0.217 ± 0.79
TVLGTCPVNKVVDNSREAGS | 1.36 ± 0.49
YEGPWQLIVVSTISVFTNSC | -0.156 ± 0.38
RTWCDGGCPV | 0.653 ± 0.81
SGFCQGGNSSRYMSII | 1.9 ± 0.27
IHICKQTCG | 0.812 ± 0.3
NFEFFYRRNHT | inactive
PYLPLRYFCWGSK | -0.249 ± 0.79
TFHGFMCGQTLRGPFRLSWW | 3.95 ± 0.088
HLSRFKWKHLFLNTVLTFAV | inactive
HGGPS | -0.571 ± 0.38
CPCSRCLVDNKVRL | -0.41 ± 0.45
SDRMLCEGNYCWCVSENVLL | 6.12 ± 0.061
YYTLWVTLTRLTNC | -0.288 ± 0.5
NEHGGLVNYGVCISGATYLA | 4.21 ± 0.097
FLKYSDKQHAVNVGLKVTAQ | 0.094 ± 0.74
VGDVGMFFLSR | -0.668 ± 0.34
YSVLTLED | 0.374 ± 0.29
CAVVRGLTVKAVL | -0.64 ± 0.76

Substance | amyloid nucleation score
MSTMINSPPSSG | inactive
DKLLMVSIFFSDSMTSLS | inactive
MDFGVLARSNLYIIYYLCLR | inactive
PMKLTILDTNGCNINRAPFS | -1.02 ± 1.1
SCFRC | 9.804 ± 0.047
EFFFRLMTDPTN | -0.376 ± 0.63
YPRALIHVWKKSLVHTSRCR | 7.14 ± 0.079
YGPLTIDGFRHAYV | 0.95 ± 0.29
RMVSPSPMAQNKLGYATTLG | 0.02 ± 0.49
VKTQSTVWSYR | 0.409 ± 0.28
IFHPSLTSRIPINTRHKVT | 4.4 ± 0.065
YGRGWHCTLYCIN | 0.008 ± 0.8
MSRSVVESQMVLSDDFWHQG | -0.41 ± 0.22
RVISFIYWSVTGDSDCLLWC | 4.24 ± 0.067
GEQSDFSSSYSYLLWKVWDG | -1.2 ± 0.36
NLTFACVVYANWVILTHGAR | 6.336 ± 0.061
SIRRCPVKFINKRLVVYLKV | -0.88 ± 0.55
YVDTRLKTSVLFRK | 3.93 ± 0.043
NADHDLSEILVNRRTGWFHF | 5.836 ± 0.041
HWNMLSIENLAHVEIIRLGS | 7.085 ± 0.043
CWGHS | -0.792 ± 0.79
AGDTLWNGGMVEWFVWRLPG | 0.178 ± 0.74
LRPLVL | -0.686 ± 1.1
VNCPRIMGSIGRLFVVYTQM | 8.319 ± 0.06
YLLGKSYF | -1.08 ± 0.36

Substance | amyloid nucleation score
THSNWTKNSVSSIYCIKILF | 6.647 ± 0.037
GNNNMRPIALCTLSMGGRTF | -0.575 ± 0.49
RIMIEFWPRFSWSI | 0.744 ± 0.14
CTYHAQVFTFDHPGRSTRYS | -0.274 ± 0.76
NDLYDSINEA | -0.885 ± 0.38
HMDHARLEVLTVILLGVWGF | 5.11 ± 0.089
CNNSVGVFYKGLTELLCLRS | -0.986 ± 1.1
LRFRKMAKKCNYVVRVVLGF | -0.273 ± 0.29
CRLCWE | -0.459 ± 0.61
FIICPSSDCNIRDIRRILTC | -0.967 ± 0.28
SHLALTY | 0.14 ± 0.25
NHMKFAGLGGCYSYCTFLVD | 6.587 ± 0.045
RSLIFLNWGYSV | 3.59 ± 0.056
FMSMLSCQAKTNLPMYATHM | -0.091 ± 0.79
NLFQRCREGDMVRNSSVLDG | -0.017 ± 1
VWEVAMISTINSAGHLCLGD | -0.109 ± 0.76
CCKITDMAPNPVETWKYSKR | 0.786 ± 0.27
FFTAMDASRSRLKCSYAVQT | 3.28 ± 0.13
YMHILLLRFVQILTIRIVLL | -0.85 ± 0.37
WYSSGMTGIIRRVDKWCAFS | -0.939 ± 0.45
IKATCAGSNIFDNLALKDAS | inactive
LILALVPLLCWMVNGW | -0.567 ± 1.1
DTCYVTTYVWWKTLCPVGLV | 1.72 ± 0.31
SALIF | 0.115 ± 1
FQYENNVDNG | -1.75 ± 0.62

Substance | amyloid nucleation score
TVVSVGVVRVHATLRVKESG | 5.661 ± 0.056
QSLIDSVHVALHKLLRRYVK | -0.232 ± 0.65
RPTAIPAHLIVFSEFCEAEW | 0.739 ± 0.45
LSWVRAIS | 0.2 ± 0.38
VDETNAKL | 0.785 ± 0.3
AASRWTWC | 1.5 ± 0.16
VDNYEQLTMKNEHETNT | -0.902 ± 0.45
YCGRWELAVWY | -0.679 ± 1.1
LLRCSLHNKLTLSFDFAFVV | inactive
GGPCDRGTFMMCDPWSFSLL | 0.513 ± 0.39
FDYVLSGICIPLKSIGVSFG | 8.385 ± 0.053
VMATLHSLFVYRVDTFMFVE | 0.358 ± 0.51
GHFAF | -0.159 ± 1.1
DLDRPYRDIFGTT | inactive
NLVAMPDQVAGSTCRVCNNN | 0.486 ± 0.51
NATCPRHCRDHQGSYYRHCL | 0.499 ± 0.28
VHCDYVIELGPGWWVRNWGS | 0.42 ± 0.54
SVECKCYYRL | 5.59 ± 0.062
SDRFMIVVDWVILVVLCMT | -0.611 ± 0.39
IGSRS | -1.25 ± 0.48
FRVMQNFHQSYGHYKWVFHF | 5.57 ± 0.057
AVGYVMLMEMEALPISMWRG | 7.027 ± 0.054
FFIYGNSHVSVIRYWTCTLT | 7.391 ± 0.049
DRLGSRERDG | 0.74 ± 0.2
RVMSVCGSYVNRGEADVVSG | 0.364 ± 0.18

Substance | amyloid nucleation score
MLLIIVWQILMKLNGWITVL | inactive
SFRFGEKDCWLDCCRVMRKK | 5.59 ± 0.068
ACILSVYFS | 2.12 ± 0.15
SSLNM | -0.595 ± 0.61
ALGVGVDFVKVWRNRGLAGG | 0.459 ± 0.51
QLFAVQSLCRKRRQLRWLPT | 0.463 ± 0.64
HDDRFSCECYSSDSPESQGL | -0.105 ± 1.1
LLACVSVMFLRSSLINLDRL | -0.637 ± 0.54
FRAFLQITLILNCGSSASDV | 3.45 ± 0.11
DLKYLGLA | -0.535 ± 0.53
SYYEWARGTSVVLIAFVTSF | -0.189 ± 0.48
GYLVRM | -0.186 ± 0.3
CTIKIGWYWL | 7.512 ± 0.07
ESDSWNVVITDM | -0.371 ± 0.64
NYNLRDHSDVRVRCSLALSE | inactive
TMELFLRRFYIWIKDIDNGR | inactive
FTFIGGYVSYYRCIPIGILP | 0.33 ± 0.74
ENHQCGWGLPLCTVVSR | 6 ± 0.077
LIVYKLV | -0.094 ± 0.74
IRYTFSKLRSDCFMRCARSW | 0.898 ± 0.23
SRFLARQLLKSASLRLFVET | -0.159 ± 0.35
SISSGMVDVAGQLSCTRVSE | 1.65 ± 0.32
PMYRILNSTKESSGFALRGP | -0.952 ± 0.45
FMRMALAGPDKF | -0.738 ± 1.1
ISWAVKMHDIPV | 0.97 ± 0.58

Substance | amyloid nucleation score
SKLRFAIIFAKHVS | -0.322 ± 0.41
GSSRLKGDGIVLVKCSWRYM | 1.13 ± 0.38
FINILKSSMLSVDWSLPIFN | inactive
HVWLDLTYGNILQNRNCLTW | -0.335 ± 0.25
MVANG | 0.317 ± 0.62
FFSFGCGSWRTVIVTSRSL | -0.299 ± 1
LLPWHRIAWDAYCMWGMSSS | 0.266 ± 0.21
IHSEFHKSY | inactive
IFNVSMSIVRSLVITCMWGL | 5.321 ± 0.043
DHAGWCSDRWVTDFDFAMGN | 0.829 ± 0.5
TILCFCAC | 4.86 ± 0.056
TVSRLYEYWLLRMCIY | -0.413 ± 1
SFLWLSMFVESAQVVNLQLY | 5.485 ± 0.038
FFRLIGDGGYCCFPCKSDVR | 2.54 ± 0.077
RSSGSSWRLNYLDEDTVVAR | 1 ± 0.4
WGCSHKLTCVGARHLVLD | 2.46 ± 0.17
LVQRWGWSKPLIAGI | -0.271 ± 0.49
GNRDF | inactive
DSPRRTFIVQASHFTVYLTR | 8.111 ± 0.058
MAGWLLNINLLMPIVGDVLQ | 8.131 ± 0.056
NDCSGKDVVILQQE | 0.192 ± 1
IFRTFFIYKEFCGFLWCVGG | 1.02 ± 0.32
GRTYNVTEFLKSRTRWGSPL | 1.19 ± 0.59
STTVTLGQSICFYLSCGLRD | 9.214 ± 0.051
AYMVEWEENHSESSVA | -0.383 ± 1

Substance | amyloid nucleation score
RFFYYVVTLDAFNTFHKHLG | -1.56 ± 1.1
VRCKVCPGRAYFDMRAPMQS | -0.512 ± 0.63
SNYVSTHRIWFGYSWCKQEK | 4.24 ± 0.13
WDGYGVYFQTQAKVR | 0.102 ± 0.63
VVRGRSGLCNMFWCDRQRRL | -0.63 ± 0.34
CCFRKWSSTAHRRFPCWREL | 0.255 ± 0.54
GCLLRCDKRGGLRPSW | 0.66 ± 0.24
LLSISCV | 0.512 ± 0.34
YKCRDLFGGRQINREHYLCY | -1.26 ± 0.62
MIASIGLDCEHVM | 0.841 ± 0.5
YYFDPS | -0.961 ± 0.62
DINVCRVYEY | -0.011 ± 1.1
RLLTSHD | 4.12 ± 0.089
GGLWTGLVSASKEFSK | inactive
WVGYLRPKKESLCLGFEDSK | 3.04 ± 0.12
LRFRVLFVFPRDPW | -0.918 ± 0.78
SCVLRP | 0.064 ± 0.33
VSTIIWCIR | 5.143 ± 0.047
VSDSNFNNGRYWLSVWRDVV | 4.25 ± 0.067
GIVRGYMLSHLFV | 0.262 ± 0.25
LVCSCIGHVHGVTH | 7.125 ± 0.067
CARMGASLWI | 0.214 ± 0.65
KTISNYVAGN | inactive
FLSSGFCRTDFVRSIILYGP | -1.43 ± 0.55
GMRWSFGVLASRSFCVKWCP | 5.57 ± 0.09
